# From the DeepSol protein solubility set
# Assay: soluble on expression in E. coli; label from the status in PepcDB or PDB records
row,Sequence,soluble on expression in E. coli
1,MEITWEKPKSSSHHRNPSFSSTLLDQIYRSIDDSSPPPPLESIKKKKHHHQQRNASLHEDREISPIYHRRSIAADFERSRRKTDFLRHSNSSSSDSSGFSSSESDSFHGRSKSSASPPSSSRQQPKPIRTSSVDHSSAVQKPKELGGFLRTKSKALKIYSDLKKVKQPISPGGRLATFLNSLFTNAATNPKKHKKTTTVAVVEEPHSSSTCSSASSFSRSCLSKTPSSSGKSKRSVRFCPVNVILDEDSSFTMPYAYNNERLYDNNEAKRVEEHRRVIQAAKDLLRTYHNKNKVTTTNINNVEEDDEDDAASCASSDLFELENLSAIGIERYREELPVYETTRLDNMNRVIATGLIV,soluble
2,MPTLQAAMFLEKDMQKNTLWFDSLSMQDVDKVGGKNASLGEMVSNLANAGVSVPNGFATTAYAFNQFLDFEGLDERIHQLLDELDVDDVDALRKTGATIRQWILQAPFPAELEQEIRTNYNQLIDGNSELSVAVRSSATAEDLPDASFAGQQETFLNVKGIDAVLEATKHVYASLFNDRAISYRVHQGFDHRGIALSAGIQRMVRSDKAASGVMFTLDTESGFDKVVFITAAWGLGEMVVQGAVNPDEFYVHKPLLEAGYPAIVKKTFGSKLSKMIYANSQVIGKQVEVVDTSAHERNQFSLTDAEIQELAKQALIIEKHYQRPMDIEWAKDGIDGKLYIVQARPETVCSQSEQNVIERYELSHKASVLLEGRAIGQRIGSGTVRLVDSLDQMSLVQQGDVLVTDMTDPDWEPVMKKAAAIVTNRGGRTCHAAIIARELGIPAIVGCGDATRRLSDGAQVTVSCAEGETGYVYAGQLDFAVRRSSVDELPMLPTKVMMNVGNPDRAFDFAQIPNEGVGLARLEFIINKMIGIHPKALLNFDTQSAELQTQILDRIRGYRDPIDFYVSKLTEGIATIAAAFWPKRVIVRMSDFKSNEYSNLLGGSEFEPHEENPMLGFRGASRYISPVFEDCFELETQAIKRVRHEMGLKNVEVMIPFVRTTGEAEAVIDLLAKFGLRRGEQGLKVIMMCELPSNAVLADEFLKFFDGFSIGSNDMTQLTLGLDRDSGDVAHLFDERNPAVKIMLKMAIDAATRAGKYVGICGQGPSDHDDLAQWLMEQGISSVSLNPDTVIDTWLKLGAVSKC,not soluble
3,MSEPSNNSEKVPDEVQEIRDAENTFNSIQRCTTTLKGFQKSYDELKLQRKQSLQTIRQHEADIQQLEQGIRVHTAAFQLLRRLLSEIRRPNQILQEALQARHIEIEAFDDEAERLNVLIVEERRNLVELQAARKIRKSYLIVFQKQIAQLKAENKDEEATPAQEQMTKKSLKRRRDDEDDETGPSARRAPNSVGAF,soluble
4,MNAPRCLRRLLERQWRQGGWLSTLLRPLAALTGLVVARKRNAYLTGARAAWRAPVPVVVVGNIYVGGTGKTPVVIEVVRQLQARGWTPGVVSRGYGVDVGAAPRVGQGQLAAADYGDEPALIARATGAAIAVHPHRPRAVQALLRAHPGVDVVVSDDGLQHLALARDVEIVVQDERGVGNGRLLPAGPLREPAQRLADVDAIVTNAGRPRAAAAPAAGAPRQLAMWLEPTHAQRVTDGATRTLADLAALPPARLAAAAGIGNPARFFQTLEQAGIRPAHTLALPDHYAYAQSPFTALDADLILVTAKDAIKCAALDDPRLWAVQVGTRLSDPDFGDWLSATLRARQPKLAAALEHHHHHH,not soluble
5,MATALNPGRTSAPTPEAAPKLRFDARRYLGTPAVRRIKDEVEIELADRAYLPDLNDLKRDWVASVAAPAFRVLARNRATPPRAFASIGTGSGVDALAAIELLGAEIVGITDLFEEVVATAARNVRGNVRPEAGITLHAGAGDLLIPLAPAGVKFDVIYENLPNLPVDDSRKIEADKTSAAFLAPRSEAIPVFITDWLLTMHYLALVQARDALTPDGVVLSTVGARVPLDVLAQMSRAAGLVPRVLTYGWKVQADADDVISTYANWERQGLGPFRFYAADALEAAFANLDPGEAGANAATIEASLAGEQLGAVAAWEAHRSGLRIGHTYVVLQSGLGLEHHHHHH,soluble
6,MIGRKEKERERPYYRDPDDPEYIKDLQRPAVIKEDLSEMERRKRVQQILESKSFCHELEEVIRQECDTARTDPDHLQVLQKLSDLTVPQGNMSFGNLHTYGGNTIAIADLRGNEKYSKAERIQRNKLACLFRLADLFQWSQGIHNEISYRTNDEDNTFLMNPFGLLYHEITAATIVKIDENGKILDCGTLKAGVNQPAFLLHSAIYKAHPMVRCILHMHTAIVAAVASMKCGLLPLCKEAMVLGPVGYHDYQDIGDDDIQFDEIIANLGDKNVLFLRNQGFLVVGDTIEHATFLANNTVIACETQVRAARAGLDNLIIPEEKAIQRAFRNSRNTNSLKRNGTVDWRVGELEWESWMRVLDHANFQTGHVYRQPQLRPKSAMSTSMVNNNDVAVPPTTSAYGQIDETNLESVSAHRLALLRKEQERVRWMNSPNAYQKVEFLEYGADNPKKITKWVHDVNVPSASGTPVKISSVHQFSPASSNPKEFKEKQKAIKENNRLGTLSAGPQSQILDSVTYEDIALLIKPDNDGTVGQSSTADRAILIGTASKGIIDRQFQHHAQVYHQIYAPNPFSVETDADIKKYVDMVKAKNSQSAPVSARSGYSQYDEVEADTVSLMQGVREHKLSQAALSASDDGLNAGISPNNVRTSEESVNTSYMSQSVVFDYPDILRPIYRQETYV,not soluble
7,SCQDLRVLNAIRDYHIGIPLTYTQYKQLTIQVLLDRLVLRRLYPLAIQICEYLRLPEVQGVSRILAHWACYKVQQKDVSDEDVARAINQKLGDTPGVSYSDIAARAYGCGRTELAIKLLEYEPRSGEQVPLLLKMKRSKLALSKAIESGDTDLVFTVLLHLKNELNRGDFFMTLRNQPMALSLYRQFCKHQELDTLKDLYNQDDNHQELGSFHIRASYAAEERIEGRVAALQTAADAFYKAKNEFAAKATEDQMRLLRIQRRLEDELGGRFLDLSLHDTVTTLILGGHNKRAEQLARDFRIPDKRLWWLKLAALADLEDWEELEKFSKSKKSPIGYLPFVEICMKQHNKHEAKKYASRVGPEQKVKALLLVGDVAQAAEVAIEHRNETELSLVLSHCTGATDGAIADKIQRARAQAQKK,soluble
8,MIDFGNFYSLIAKNHLSHWLETLPAQIANWQREQQHGLFKQWSNAVEFLPEIKPYRLDLLHSVTAESEEPLSAGQIKRIETLMRNLMPWRKGPFSLYGVNIDTEWRSDWKWDRVMPHLSDLTGRTILDVGCGSGYHMWRMIGAGAHLAVGIDPTQLFLCQFEAVRKLLGNDQRAHLLPLGIEQLPALKAFDTVFSMGVLYHRRSPLEHLWQLKDQLVNEGELVLETLVIDGDENTVLVPGDRYAQMRNVYFIPSALALKNWLKKCGFVDIRIADVSVTTTEEQRRTEWMVTESLADFLDPHDPGKTVEGYPAPKRAVLIARKP,not soluble
9,MANPLYQKHIISINDLSRDDLNLVLATAAKLKANPQPELLKHKVIASCFFEASTRTRLSFETSMHRLGASVVGFSDSANTSLGKKGETLADTISVISTYVDAIVMRHPQEGAARLATEFSGNVPVLNAGDGSNQHPTQTLLDLFTIQETQGRLDNLHVAMVGDLKYGRTVHSLTQALAKFDGNRFYFIAPDALAMPQYILDMLDEKGIAWSLHSSIEEVMAEVDILYMTRVQKERLDPSEYANVKAQFVLRASDLHNAKANMKVLHPLPRVDEIATDVDKTPHAWYFQQAGNGIFARQALLALVLNRDLVL,soluble
10,MLKDEYGRVVTNLRIAVTKKCNLRCFYCHKEGESNPGEEISAERIVEIARAFKELGVRKLKITGGEPLLRKDLPDIILNLPEFEEISMTTNGILLEKYAEELRECGLSRVNVSLDTLDAEKYRWITGGGEVQKVVNGIEKACEVGLTPVKINMLVLGGVNDNEVDELLEFTNSFNRGNTKAILQVIELVPFPGFEKYFFDISTIEEKYARMATQRRVRAMHRRTQYFTPKGVIEFVKPMDNTAFCMHCNRMRVTSDGKLKPCLLRNETITIDGKHGEELARAIIETVRKREPYFKG,not soluble
11,MSEFLTHPFEPFFDKDSKILILGSFPSIKSRQDGFYYQHPRNRFWPILETLFNAKLENITEQQAFLRKKHIALWDVLQSCKIKNSDDKTISYAKANDLNLILSQTKIQAIFTTGQSAYRFFVKFHPRLEAIALPSTSPANLNFSFEQLLQNYEIIKKFTKLEHHHHHH,soluble
12,TTEEKKEEFLATVIDSVGDGVIVIDLDGRIALMNPAAEEISGISRRQAVGHRFALVFHREAVLREMVGKTATSGMTISDHENIVIRKLKQLTPVSATTFPLMLPHGETTGTILVLRD,not soluble
13,SSKSLKKLVEESREKNQPEVDMSDRGISNMLDVNGLFTLSHITQLVLSHNKLTMVPPNIAELKNLEVLNFFNNQIEELPTQISSLQKLKHLNLGMNRLNTLPRGFGSLPALEVLDLTYNNLSENSLPGNFFYLTTLRALYLSDNDFEILPPDIGKLTKLQILSLRDNDLISLPKEIGELTQLKELHIQGNRLTVLPPELGNLDLTGQKQVFKAENNPWVTPIADQFQLGVSHVFEYIRSETYKYLYGRHMQANPEPPKKNNDKSKKISRKPLAAKNR,soluble
14,MASEMIVDHRQKAFELLKVDAEKILKLIRVQMDNLTMPQCPLYEEVLDTQMFGLSREIDFAVRLGLVDEKDGKDLLYTLERELSALHDAFTAK,soluble
15,KKLDLLITGVGGQGAILASDIIGKAAVISGIPIRAAETHGMAQRGGSVVNHIRLGSDLGSMIPKKGADIMLALEPMEAVRYLDFLKDGGVIIVNTQSIIPVTVTSGLSKYPEVQEILDALSEKYVVKAFNADELAHEAGSRLAMNVAMVGAVSGYLPISKEVLLESVKVLVPKKTIEINIRAFEMGREEVEE,not soluble
16,MGSDKIHHHHHHMPLLDVRNLTIELDTPHGRVRALEKVSLTLNAGEIHGLVGESGSGRSLLARAILGIPGPNWTITADRMMWDGNNLMAMSSKERRNLMGSDMAMIFQDPSGSLDPAQTVGSQLMQAMPKNPNAYFWQKRRHARLTAQKWLHKVGIKNPRQVMSSYAWELSEGECQKVMIAMAVANQPRLLIADEPTSSMELSTQAQIFRLLSQLNQLQNVSILLISHELETLAQWCDHLSVLYCGQVMESGPTDEVIKQPYHPYTKALLDNMPDYSGSGGHKAIMPTLPGSAPALQHLPIGCRLGPRCPEAQKKCVNQPNLSHIKDRYFACHFPYHGETHNDDPTA,not soluble
17,MGSDKIHHHHHHMSILEVKNLSHGFGDRAIFEDVSFRLLKGEHIGLVGANGEGKSTFMSIVTGKMLPDEGKVEWSKYVTAGYLDQHSVLAERQSVRDVLRTAFDELFKAEARINDLYMKMAEDGADVDALMEEVGELQDRLESRDFYTLDAKIDEVARALGVMDFGMDTDVTSLSGGQRTKVLLAKLLLEKPDILLLDEPTNYLDAEHIDWLKRYLQNYENAFVLISHDIPFLNDVINIVYHVENQQLTRYSGDYYQFQEVYAMKKSQLEAAYERQQKEIADLKDFVARNKARVATRNMAMSRQKKLDKMDIIELQSEKPKPSFDFKPARTPGRFIFQAKNLQIGYDRPLTKPLNLTFERNQKVAIIGANGIGKTTLLKSLLGIISPIAGEVERGDYLELGYFEQEVEGGNRQTPLEAVWNAFPALNQAEVRAALARCGLTTKHIESQIQVLSGGEQAKVRFCLLMNRENNVLVLDEPTNHLDVDAKDELKRALKEYRGSILMVCHEPDFYEGWIDQIWDFNNLT,not soluble
